Test results from paper PMC4575112, “Serine 363 of a Hydrophobic Region of Archaeal Ribulose 1,5-Bisphosphate Carboxylase/Oxygenase from Archaeoglobus fulgidus and Thermococcus kodakaraensis Affects CO2/O2 Substrate Specificity and Oxygen Sensitivity” (PLoS ONE, 2015).

What was measured:
A. fulgidus RbcL2 [1] = molecular target: T1, A. fulgidus RbcL2 (Archaeoglobus fulgidus, UniProt O28635); assay: radiometric […]-bicarbonate carboxylase assay; type: biochemical; conditions: 83°C, pH 8.3, Mg2+, strictly anaerobic; value previously reported by same laboratory (ref 17), run in parallel; read-out: KRuBP ^a /; cited from earlier work
T1 construct: gene rbcL; recombinant in E. coli BL-21(DE3) from pET11a, untagged, purified anaerobically to homogeneity; homodimer
T1 sequence (O28635 1-441): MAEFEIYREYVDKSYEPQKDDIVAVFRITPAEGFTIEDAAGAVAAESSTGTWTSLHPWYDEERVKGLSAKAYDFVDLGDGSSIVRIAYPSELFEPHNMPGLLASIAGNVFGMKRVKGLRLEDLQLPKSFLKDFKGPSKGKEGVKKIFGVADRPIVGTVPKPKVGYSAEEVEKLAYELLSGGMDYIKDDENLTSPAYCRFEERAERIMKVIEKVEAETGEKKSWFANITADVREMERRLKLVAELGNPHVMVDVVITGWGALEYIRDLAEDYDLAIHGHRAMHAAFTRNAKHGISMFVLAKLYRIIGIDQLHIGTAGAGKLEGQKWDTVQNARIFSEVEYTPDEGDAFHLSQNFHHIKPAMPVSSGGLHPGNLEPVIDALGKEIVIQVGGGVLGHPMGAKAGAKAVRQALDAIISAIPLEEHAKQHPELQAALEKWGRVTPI

A. fulgidus RbcL2 [2] = molecular target: T2, A. fulgidus RbcL2 (Archaeoglobus fulgidus, UniProt O28635, M295D); assay: radiometric […]-bicarbonate carboxylase assay; type: biochemical; conditions: 83°C, pH 8.3, Mg2+, strictly anaerobic; value previously reported by same laboratory (ref 17), run in parallel; read-out: KRuBP ^a /; cited from earlier work
T2 construct: gene rbcL; recombinant in E. coli BL-21(DE3) from pET11a, untagged, purified anaerobically to homogeneity; homodimer
T2 sequence (O28635 whole entry M295D): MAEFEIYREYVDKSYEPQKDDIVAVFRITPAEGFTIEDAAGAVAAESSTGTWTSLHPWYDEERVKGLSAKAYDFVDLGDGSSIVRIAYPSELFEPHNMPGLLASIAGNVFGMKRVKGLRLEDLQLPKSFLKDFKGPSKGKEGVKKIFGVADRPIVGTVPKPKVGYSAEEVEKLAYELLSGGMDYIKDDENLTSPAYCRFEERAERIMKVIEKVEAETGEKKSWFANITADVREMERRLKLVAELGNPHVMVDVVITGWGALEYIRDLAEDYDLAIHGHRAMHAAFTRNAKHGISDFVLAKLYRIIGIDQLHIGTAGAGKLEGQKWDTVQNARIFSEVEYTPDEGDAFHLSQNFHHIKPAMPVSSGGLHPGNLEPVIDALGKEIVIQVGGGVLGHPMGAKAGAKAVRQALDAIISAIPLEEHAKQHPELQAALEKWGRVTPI

purified protein [3] = substrate: O=C(COP(=O)(O)O)[C@H](O)[C@H](O)COP(=O)(O)O; assay: purified protein; type: biochemical, Thermococcus kodakarensis; conditions: 83°C, pH 8.3, Mg2+, strictly anaerobic
purified protein [4] = substrate: O=C(COP(=O)(O)O)[C@H](O)[C@H](O)COP(=O)(O)O; assay: purified protein; type: biochemical, Archaeoglobus fulgidus; conditions: 83°C, pH 8.3, Mg2+, strictly anaerobic

Molecule | Km (purified protein [4]; kcat determined at 4–6 x KRuBP) [µM] | kcat (purified protein [4]; kcat determined at 4–6 x KRuBP) [s⁻¹] | also measured
O=C(COP(=O)(O)O)[C@H](O)[C@H](O)COP(=O)(O)O [RuBP] | – | – | Km (A. fulgidus RbcL2 [1]): 20 ± 5 µM; Km (A. fulgidus RbcL2 [2]): 21 ± 3 µM
T. kodakaraensis RbcL (Thermococcus kodakarensis KOD1) (protein, recombinant in E. coli BL-21(DE3) from pET11a, untagged, purified anaerobically to homogeneity; reported decamer) MVEKFDTIYDYYVDKGYEPSKKRDIIAVFRVTPAEGYTIEQAAGAVAAESSTGTWTTLYPWYEQERWADLSAKAYDFHDMGDGSWIVRIAYPFHAFEEANLPGLLASIAGNIFGMKRVKGLRLEDLYFPEKLIREFDGPAFGIEGVRKMLEIKDRPIYGVVPKPKVGYSPEEFEKLAYDLLSNGADYMKDDENLTSPWYNRFEERAEIMAKIIDKVENETGEKKTWFANITADLLEMEQRLEVLADLGLKHAMVDVVITGWGALRYIRDLAADYGLAIHGHRAMHAAFTRNPYHGISMFVLAKLYRLIGIDQLHVGTAGAGKLEGGKWDVIQNARILRESHYKPDENDVFHLEQKFYSIKAAFPTSSGGLHPGNIQPVIEALGTDIVLQLGGGTLGHPDGPAAGARAVRQAIDAIMQGIPLDEYAKTHKELARALEKWGHVTPV | – | – | Km (purified protein [3]): 14 ± 2 µM; kcat (purified protein [3]): 16.6 s⁻¹
A. fulgidus RbcL2 (Archaeoglobus fulgidus DSM 4304; S363I) (protein, recombinant in E. coli BL-21(DE3) from pET11a, untagged, purified anaerobically to homogeneity; homodimer) MAEFEIYREYVDKSYEPQKDDIVAVFRITPAEGFTIEDAAGAVAAESSTGTWTSLHPWYDEERVKGLSAKAYDFVDLGDGSSIVRIAYPSELFEPHNMPGLLASIAGNVFGMKRVKGLRLEDLQLPKSFLKDFKGPSKGKEGVKKIFGVADRPIVGTVPKPKVGYSAEEVEKLAYELLSGGMDYIKDDENLTSPAYCRFEERAERIMKVIEKVEAETGEKKSWFANITADVREMERRLKLVAELGNPHVMVDVVITGWGALEYIRDLAEDYDLAIHGHRAMHAAFTRNAKHGISMFVLAKLYRIIGIDQLHIGTAGAGKLEGQKWDTVQNARIFSEVEYTPDEGDAFHLSQNFHHIKPAMPVISGGLHPGNLEPVIDALGKEIVIQVGGGVLGHPMGAKAGAKAVRQALDAIISAIPLEEHAKQHPELQAALEKWGRVTPI | – | – | Km (purified protein [4]): 570 ± 94 µM; kcat (purified protein [4]): 9.5 s⁻¹
A. fulgidus RbcL2 (Archaeoglobus fulgidus DSM 4304; S363V) (protein, recombinant in E. coli BL-21(DE3) from pET11a, untagged, purified anaerobically to homogeneity; homodimer) MAEFEIYREYVDKSYEPQKDDIVAVFRITPAEGFTIEDAAGAVAAESSTGTWTSLHPWYDEERVKGLSAKAYDFVDLGDGSSIVRIAYPSELFEPHNMPGLLASIAGNVFGMKRVKGLRLEDLQLPKSFLKDFKGPSKGKEGVKKIFGVADRPIVGTVPKPKVGYSAEEVEKLAYELLSGGMDYIKDDENLTSPAYCRFEERAERIMKVIEKVEAETGEKKSWFANITADVREMERRLKLVAELGNPHVMVDVVITGWGALEYIRDLAEDYDLAIHGHRAMHAAFTRNAKHGISMFVLAKLYRIIGIDQLHIGTAGAGKLEGQKWDTVQNARIFSEVEYTPDEGDAFHLSQNFHHIKPAMPVVSGGLHPGNLEPVIDALGKEIVIQVGGGVLGHPMGAKAGAKAVRQALDAIISAIPLEEHAKQHPELQAALEKWGRVTPI | 118 ± 6 | 12.4 | –
A. fulgidus RbcL2 (Archaeoglobus fulgidus DSM 4304; M295D/S363I) (protein, recombinant in E. coli BL-21(DE3) from pET11a, untagged, purified anaerobically to homogeneity; homodimer) MAEFEIYREYVDKSYEPQKDDIVAVFRITPAEGFTIEDAAGAVAAESSTGTWTSLHPWYDEERVKGLSAKAYDFVDLGDGSSIVRIAYPSELFEPHNMPGLLASIAGNVFGMKRVKGLRLEDLQLPKSFLKDFKGPSKGKEGVKKIFGVADRPIVGTVPKPKVGYSAEEVEKLAYELLSGGMDYIKDDENLTSPAYCRFEERAERIMKVIEKVEAETGEKKSWFANITADVREMERRLKLVAELGNPHVMVDVVITGWGALEYIRDLAEDYDLAIHGHRAMHAAFTRNAKHGISDFVLAKLYRIIGIDQLHIGTAGAGKLEGQKWDTVQNARIFSEVEYTPDEGDAFHLSQNFHHIKPAMPVISGGLHPGNLEPVIDALGKEIVIQVGGGVLGHPMGAKAGAKAVRQALDAIISAIPLEEHAKQHPELQAALEKWGRVTPI | 1646 ± 310 | 0.7 | –
A. fulgidus RbcL2 (Archaeoglobus fulgidus DSM 4304; M295D/S363V) (protein, recombinant in E. coli BL-21(DE3) from pET11a, untagged, purified anaerobically to homogeneity; homodimer) MAEFEIYREYVDKSYEPQKDDIVAVFRITPAEGFTIEDAAGAVAAESSTGTWTSLHPWYDEERVKGLSAKAYDFVDLGDGSSIVRIAYPSELFEPHNMPGLLASIAGNVFGMKRVKGLRLEDLQLPKSFLKDFKGPSKGKEGVKKIFGVADRPIVGTVPKPKVGYSAEEVEKLAYELLSGGMDYIKDDENLTSPAYCRFEERAERIMKVIEKVEAETGEKKSWFANITADVREMERRLKLVAELGNPHVMVDVVITGWGALEYIRDLAEDYDLAIHGHRAMHAAFTRNAKHGISDFVLAKLYRIIGIDQLHIGTAGAGKLEGQKWDTVQNARIFSEVEYTPDEGDAFHLSQNFHHIKPAMPVVSGGLHPGNLEPVIDALGKEIVIQVGGGVLGHPMGAKAGAKAVRQALDAIISAIPLEEHAKQHPELQAALEKWGRVTPI | 1381 ± 88 | 4.3 | –
